Laboratory results published in paper PMC9836055.

Test system: CC(=O)Oc1ccc([N+](=O)[O-])cc1
Assay: purified protein
Details: PBS, 37 °C, 0.25 mg/mL enzyme

Lsa45 (Leptospiral surface adhesin of 45 kDa) (Leptospira interrogans serovar Copenhageni str. Fiocruz L1-130)
Km: 849.3 ± 15.30 µM | Vmax: 219 µM/min
